Test results reported in US20260201039A1 (CENTESSA PHARMACEUTICALS UK, published 2026).
Each block holds one binder with its values, some of them ahead of it.

Assays:
[1] = molecular target: T1, mouse CD28 recombinant protein (mouse, UniProt P31041 20-150, limits assumed); assay: ELISA on coated mouse CD28, absorbance (blank corrected)
T1 construct: Bought recombinant protein
Procedure: (§1) For ELISA binding assays, 384 well or 96 well plates were coated with 1 ug/ml and incubated overnight at 4° C., protected from light. Plates were washed twice with PBS/0.05% Tween 20 before blocking with block buffer (3% milk protein in PBS) for 1 hour at room temperature. Next, test agent or controls were loaded and incubated for 1 hour at room temperature. Plates were then washed three times with PBS/0.05% Tween 20. Finally, HRP conjugated secondary antibody, diluted 1/5,000 in block buffer, was added and incubated for 1 hour at room temperature. Plates were again washed three times with PBS/0.05% Tween before addition of TMB substrate and incubation for 6 minutes at room temperature. Subsequently, the reaction was stopped with stop solution. Absorbance was read at 450 nm and 570 nm. Absorbance at 570 nm was subtracted from absorbance at 450 nm for each plate.

[2] = molecular target: human CD28 in its native form displayed on the cell surface (human, UniProt P10747 19-220); assay: cell-based or functional assay
[3] = molecular target: T2, human/cyno recombinant CD28 protein (human (printed as human/cyno), UniProt P10747 19-152); assay: SPR (Biacore 8K, 25 C), CD28 captured by anti-His antibody, Fab as analyte, 1:1 fit; Fab_001 (CD28 TGN derived sequence)
T2 construct: Bought recombinant protein; also called human recombinant CD28; human/cyno CD28
Procedure: (§2) In order to assess the binding of test Fabs to human or mouse CD28 (Acro Biosystems, Newark, USA), multi-cycle kinetic analysis was performed at 25° C. on a Biacore® 8K (serial no. 2724204) HBS-P+ (Cytiva, Marlborough, USA) supplemented with 0.1% BSA (Sigma, Dorset, UK) was used as running buffer as well as for ligand and analyte dilutions. CD28 proteins were diluted to 1.0 μg/mL in running buffer and at the start of each cycle loaded onto Fc2, of a series S CM5 chip (Cytiva, Marlborough, USA) previously coupled with an anti-His capture antibody (Cytiva, Marlborough, USA) using standard amine chemistry. Ligand was captured at a flow rate of 10 μl/min to give an immobilization level (RL) of ~60 RU. The surface was then allowed to stabilize. Multi-cycle kinetic data was obtained antigens as the analyte injected at a flow rate of 30 μl/min to try and minimize any potential mass transfer effects. A 9 point 2-fold dilution of purified Fab titrated from 0.39 nM to 100 nM was prepared in running buffer for Fab proteins. For each concentration, the association phases were monitored for 240 seconds, and the dissociation phase was measured for 900 seconds. […] Binding was analysed using 1:1 binding analysis due to the high affinity interaction between the antibody and antigen. The data was analysed using a procedure referred to as double referencing. […]

[4] = molecular target: T2, human/cyno recombinant CD28 protein; assay: SPR (Biacore 8K), CD28 captured on an anti-His surface, Fab as analyte, multi-cycle kinetics, 1:1 fit
Procedure: In order to assess the binding of test Fabs to human or mouse CD28 (Acro Biosystems, Newark, USA), multi-cycle kinetic analysis was performed at 25° C. on a Biacore® 8K (serial no. 2724204) HBS-P+ (Cytiva, Marlborough, USA) supplemented with 0.1% BSA (Sigma, Dorset, UK) was used as running buffer as well as for ligand and analyte dilutions. CD28 proteins were diluted to 1.0 μg/mL in running buffer and at the start of each cycle loaded onto Fc2, of a series S CM5 chip (Cytiva, Marlborough, USA) previously coupled with an anti-His capture antibody (Cytiva, Marlborough, USA) using standard amine chemistry. Ligand was captured at a flow rate of 10 μl/min to give an immobilization level (RL) of ~60 RU. The surface was then allowed to stabilize. Multi-cycle kinetic data was obtained antigens as the analyte injected at a flow rate of 30 μl/min to try and minimize any potential mass transfer effects. A 9 point 2-fold dilution of purified Fab titrated from 0.39 nM to 100 nM was prepared in running buffer for Fab proteins. For each concentration, the association phases were monitored for 240 seconds, and the dissociation phase was measured for 900 seconds. Regeneration of the sensor chip surface was conducted between cycles using 10 mM glycine pH 2.1. Multiple repeats of a blank and of antigen were programmed into the kinetic run, in order to check the stability of both the surface and analyte over the kinetic cycles. The signal from the reference Fc1 (no ligand captured) was subtracted from that of Fc2 to correct for bulk effect and differences in non-specific binding to a reference surface. The signal from each blank run (ligand captured but no antigen) was subtracted to correct for differences in surface stability. Binding was analysed using 1:1 binding analysis due to the high affinity interaction between the antibody and antigen. The data was analysed using a procedure referred to as double referencing. This refers to the process of first subtracting the reference channel response (Fc1) and then subtracting the zero concentration sensorgram to compensate for bulk effects, baseline drift and small differences between the reference and the active channel.

[5] = molecular target: T1, mouse CD28 recombinant protein; assay: SPR (Biacore 8K), CD28 captured on an anti-His surface, Fab as analyte
Procedure: as §2

[6] = molecular target: T2, human/cyno recombinant CD28 protein; assay: ELISA on coated huCD28, corrected absorbance (A450-570 nm)
Procedure: as §1
To assess the ability of undigested fully intact and MMP12 incubated proteins to interact with CD28, binding ELISAs to recombinant human CD28 domain were carried out. In parallel, purified IgG_001 and IgG_002 proteins were used as positive controls while isotype binding was used as negative control.

[7] = molecular target: T2, human/cyno recombinant CD28 protein; assay: SPR (Biacore 8K, 25 C), CD28 captured by anti-His antibody, Fab as analyte, 1:1 fit; Fab_002
Procedure: as §2

B2: Anti-CD28 Fab-001 (Fab, V domains shown)
VH: QVQLVQSGAEVKKPGASVKVSCKASGYTFTSYYIHWVRQAPGQGLEWIGSIYPGNVNTNYNEKEKDRATLTVDTSISTAYMELSRLRSDDTAVYFCTRSHYGLDWNFDVWGQGTTVTVSS
VL: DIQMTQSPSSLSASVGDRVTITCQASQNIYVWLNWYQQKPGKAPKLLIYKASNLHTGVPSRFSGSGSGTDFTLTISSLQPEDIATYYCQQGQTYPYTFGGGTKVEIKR
notes: Monovalent Fab
Kd [3]: 0.59 nM
Kd [4]: 0.593 nM
koff [4]: 0.00027 s⁻¹
kon [4]: 455000 M⁻¹ s⁻¹
binding result [5]: no binding

B3: LPD28-3, intact (bispecific antibody, human IgG1, kappa)
heavy: not shown
light: not shown
chain: SCPPCPAPEAAGAPSVFLFPPKPKDTLMISRTPEVTCVVVDVSHEDPEVKFNWYVDGVEVHNAKTKPREEQYNSTYRVVSVLTVLHQDWLNGKEYKCKVSNKALPAPIEKTISKAKGQPREPQVCTLPPSRDELTKNQVSLSCAVKGFYPSDIAVEWESNGQPENNYKTTPPVLDSDGSFFLVSKLTVDKSRWQQGNVFSCSVMHEALHNHYTQKSLSLSPGK
notes: Asymmetric one arm construct: anti-PD-L1 Fab above anti-CD28-2 Fab; also called undigested LPD28-3; LPD28-3 (0 min)
binding result [6]: binds

B4: Fab_002 (Fab, V domains shown)
VH: QVQLQQSGAELKKPGASVKVSCKASGYTFTEYIIHWIKLRSGQGLEWIGWFYPGSNDIQYNAQFKGKATLTADKSSSTVYMELTGLTPEDSAVYFCARRDDFSGYDALPYWGQGTLVTVSA
VL: DIQMTQSPSSLSASVGDRVTITCKTNENIYSNLAWYQQKDGKSPQLLIYAATHLVEGVPSRFSGSGSGTQYSLTISSLQPEDFGNYYCQHFWGTPCTFGGGTKLEIKR
notes: also called Anti-CD28-2 Fab
Kd [7]: 0.53 nM
Kd [4]: 0.532 nM
koff [4]: 0.000241 s⁻¹
kon [4]: 454000 M⁻¹ s⁻¹
binding result [5]: no binding

Results, then the binder that gave them:

binding result [1]: no binding (tested: about 300 nM)
mean IL2 secretion, PBMC of 20 donors on plate-coated protein, 72 h [2]: ~2000 pg/mL
B1: IgG_001 (antibody, V domains shown)
VH: B2 VH
VL: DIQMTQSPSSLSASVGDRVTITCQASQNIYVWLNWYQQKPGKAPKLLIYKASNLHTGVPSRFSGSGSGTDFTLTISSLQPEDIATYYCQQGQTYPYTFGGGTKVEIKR
notes: also called TGN derived CD28 V domain IgG_001 on IgG1-Fc isotype

binding result [1]: no binding (tested: about 300 nM)
B5: IgG_002 (antibody, V domains shown)
VH: B4 VH
VL: B4 VL
notes: also called non superagonist CD28 IgG
